Experimental data taken from the RNAGym collection of RNA variant scans (doi:10.1021/acssynbio.7b00057).

B1: Pistol ribozyme (parent)
chain: GGGUCGUUGUUCCAUAAUCGCGUGGAUAUGGCACGCAAGUUUCUACCGGGCACCGUAAAUGUCCGACUGGAGCCGUUCGGGCGGCUAUAAACAGACCUCAGGCCCGAAGCGUGGCGGCACCUGCCGCCGGUGGUAAAAAAGAUCGGAAGAGCACACGUCU

Variants of: B1
Experiment: aptazyme ON/OFF ratio, guanine; higher = stronger switching; co-transcriptional cleavage with and without guanine

Variant | aptazyme ON/OFF ratio
U7G U8A U10A U11A | 2.2
U7G U8A U10A U11C | 0.988
U7G U8A U10A U11G | 2.46
U7G U8A U10C U11A C12G | 1.54
U7G U8A U10C U11A C12U | 1.42
U7G U8A U10C U11A C12A | 1.32
U7G U8A G9U U11C C12A C13G | 1.07
U7G U8A G9U U11C C12A C13U | 1.16
U7G U8A G9U U11C C12A C13A | 1.1
U7G U8A U10C U11A C12A C13U | 1.39
U7G U8A U10C U11A C12A C13A | 1.49
U7G U8A U10C U11A C12A C13G | 1.23
U7G U8A U10C C12A C13G | 1.27
U7G U8A U10C C12A C13A | 1.39
U7G U8A U10C C12A C13U | 1.34
U7G U8A U10A U11C C12A | 1.31
U7G U8A U10A U11C C12G | 1.26
U7G U8A U10A U11C C12U | 1.05
U7G U8A U10A U11C C13G | 1.06
U7G U8A U10A U11C C13U | 1
U7G U8A U10A U11C C13A | 1.03
U7G U8A U10A C13A | 1.2
U7G U8A U10A C13U | 1.25
U7G U8A U10A C13G | 1.44

Variant | aptazyme ON/OFF ratio
U7G U8A U10A U11G C12G C13A | 1.26
U7G U8A U10A U11G C12G C13G | 1.11
U7G U8A U10A U11G C12G C13U | 1.3
U7G U8A G9U U10G U11G C12G C13G | 1.24
U7G U8A G9U U10G U11G C12G C13A | 1.15
U7G U8A G9U U10G U11G C12G C13U | 1.05
U7G U8A U10A U11G C12A C13G | 1.19
U7G U8A U10A U11G C12A C13A | 1.17
U7G U8A U10A U11G C12A C13U | 1.17
U7G U8A U10C U11A C12G C13G | 1.22
U7G U8A U10C U11A C12G C13U | 1.38
U7G U8A U10C U11A C12G C13A | 1.25
U7G U8A G9U U11C C12G C13G | 1.04
U7G U8A G9U U11C C12G C13A | 1.09
U7G U8A G9U U11C C12G C13U | 1.08
U7G U8A U10A U11G C13U | 1.38
U7G U8A U10A U11G C13G | 1.36
U7G U8A U10A U11G C13A | 1.23
U7G U8A G9U U11G C12U C13G | 1.04
U7G U8A G9U U11G C12U C13U | 1.15
U7G U8A G9U U11G C12U C13A | 1.1
U7G U8A U10C U11A C12U C13A | 1.3
U7G U8A U10C U11A C12U C13U | 1.34
U7G U8A U10C U11A C12U C13G | 1.19

Variant | aptazyme ON/OFF ratio
U7G U8A G9U U11A C12U C13A | 1.02
U7G U8A G9U U11A C12U C13U | 1.07
U7G U8A G9U U11A C12U C13G | 1.07
U7G U8A U10A U11G C12U | 1.14
U7G U8A U10A U11G C12A | 1.11
U7G U8A U10A U11G C12G | 1.33
U7G U8A U10C C12U C13G | 1.26
U7G U8A U10C C12U C13U | 1.32
U7G U8A U10C C12U C13A | 1.24
U7G U8A G9U U11A C12U | 1.17
U7G U8A G9U U11A C12G | 1.14
U7G U8A G9U U11A C12A | 1.14
U7G U8A G9U U11C C12G | 1.11
U7G U8A G9U U11C C12U | 1.19
U7G U8A G9U U11C C12A | 1.16
U7G U8A U10A U11A C12A C13U | 1.08
U7G U8A U10A U11A C12A C13G | 1.18
U7G U8A U10A U11A C12A C13A | 1.21
U7G U8A G9U U11G C12A C13A | 1.09
U7G U8A G9U U11G C12A C13U | 1.09
U7G U8A G9U U11G C12A C13G | 1.05
U7G U8A U10A U11C C12U C13A | 1.18
U7G U8A U10A U11C C12U C13U | 1.19
U7G U8A U10A U11C C12U C13G | 1.23

Variant | aptazyme ON/OFF ratio
U7G U8A U10A C12A C13A | 1.33
U7G U8A U10A C12A C13U | 1.08
U7G U8A U10A C12A C13G | 1.3
U7G U8A U10C C12G C13U | 1.31
U7G U8A U10C C12G C13G | 1.17
U7G U8A U10C C12G C13A | 1.39
U7G U8A G9U U11G C12G C13U | 1.06
U7G U8A G9U U11G C12G C13G | 1.03
U7G U8A G9U U11G C12G C13A | 1.01
U7G U8A G9U U11G C12U | 1.23
U7G U8A G9U U11G C12G | 1.12
U7G U8A G9U U11G C12A | 1.07
U7G U8A G9U U10G U11G C12A C13U | 1.25
U7G U8A G9U U10G U11G C12A C13A | 1.07
U7G U8A G9U U10G U11G C12A C13G | 1.09
U7G U8A U10A U11C C12A C13U | 1.17
U7G U8A U10A U11C C12A C13G | 1.25
U7G U8A U10A U11C C12A C13A | 1.26
U7G U8A U10A C12U C13U | 1.09
U7G U8A U10A C12U C13A | 1.24
U7G U8A U10A C12U C13G | 1.28
U7G U8A U10C U11A C13A | 1.39
U7G U8A U10C U11A C13G | 1.23
U7G U8A U10C U11A C13U | 1.44

Variant | aptazyme ON/OFF ratio
U7G U8A G9U U10G U11G C12U C13G | 1.06
U7G U8A G9U U10G U11G C12U C13A | 1.04
U7G U8A G9U U10G U11G C12U C13U | 1.12
U7G U8A U10A U11A C12G C13G | 1.2
U7G U8A U10A U11A C12G C13A | 1.14
U7G U8A U10A U11A C12G C13U | 1.46
U7G U8A U10C U11C C12A C13U | 1.23
U7G U8A U10C U11C C12A C13G | 1.16
U7G U8A U10C U11C C12A C13A | 1.2
U7G U8A U10C C13G | 1.09
U7G U8A U10C C13A | 1.23
U7G U8A U10C C13U | 1.49
U7G U8A G9U U11A C12A C13U | 1.15
U7G U8A G9U U11A C12A C13G | 1.11
U7G U8A G9U U11A C12A C13A | 1.16
U7G U8A U10A U11A C13U | 1.21
U7G U8A U10A U11A C13A | 1.2
U7G U8A U10A U11A C13G | 1.15
U7G U8A G9U U11C C13G | 1.05
U7G U8A G9U U11C C13A | 1.1
U7G U8A G9U U11C C13U | 1.09
U7G U8A G9U U11C | 1.08
U7G U8A G9U U11G | 1.17
U7G U8A G9U U11A | 1.39

Variant | aptazyme ON/OFF ratio
U7G U8A U10A U11A C12U C13A | 1.22
U7G U8A U10A U11A C12U C13U | 1.31
U7G U8A U10A U11A C12U C13G | 1.29
U7G U8A U10A C12G | 1.3
U7G U8A U10A C12A | 1.26
U7G U8A U10A C12U | 1.18
U7G U8A U10C | 2.69
U7G U8A U10A | 1.35
U7G U8A U10C U11C C12G | 1.29
U7G U8A U10C U11C C12A | 1.46
U7G U8A U10A U11G C12U C13A | 1.38
U7G U8A U10A U11G C12U C13G | 1.14
U7G U8A U10A U11G C12U C13U | 1.71
U7G U8A G9U U11C C12U C13U | 1.02
U7G U8A G9U U11C C12U C13G | 1.15
U7G U8A G9U U11C C12U C13A | 1.1
U7G U8A U10A C12G C13G | 1.22
U7G U8A U10A C12G C13U | 1.47
U7G U8A U10A C12G C13A | 1.23
U7G U8A U10C U11C C12G C13A | 1.32
U7G U8A U10C U11C C12G C13G | 1.06
U7G U8A U10A U11C C12G C13G | 1.07
U7G U8A U10A U11C C12G C13U | 1.18
U7G U8A U10A U11C C12G C13A | 1.28

Variant | aptazyme ON/OFF ratio
U7G U8A U10A U11A C12G | 1.14
U7G U8A U10A U11A C12A | 1.08
U7G U8A U10A U11A C12U | 1.12
U7G U8A G9U U11G C13A | 1.07
U7G U8A G9U U11G C13U | 1.07
U7G U8A G9U U11G C13G | 1.02
U7G U8A U10C U11C | 1.11
U7G U8A U10C U11A | 2.3
U7G U8A G9U U11A C12G C13G | 1.06
U7G U8A G9U U11A C12G C13U | 1.04
U7G U8A G9U U11A C12G C13A | 1.06
U7G U8A G9U U10G U11G C13G | 1.17
U7G U8A G9U U10G U11G C13A | 1.3
U7G U8A G9U U10G U11G C13U | 1.18
U7G U8A G9U U11A C13U | 1.11
U7G U8A G9U U11A C13G | 1.02
U7G U8A G9U U11A C13A | 1.09
U7G U8A U10C C12U | 2.18
U7G U8A U10C C12G | 1.46
U7G U8A U10C C12A | 1.5
U7G U8A G9U U10G U11G C12U | 1.15
U7G U8A G9U U10G U11G C12A | 1.24
U7G U8A G9U U10G U11G C12G | 1.29
